In patent publication US20220143148A1, “COMPOSITIONS AND METHODS FOR MODULATING CGRP SIGNALING TO REGULATE INTESTINAL INNATE LYMPHOID CELLS” (The Broad Institute, Inc., priority 2019, published 2022):

Tested on: small intestinal immune cells
Assay: Droplet-based scRNA-seq of small intestinal immune cells (LP and PP), OVA vs PBS, clustering and differential expression
Format: in vivo, mouse
Conditions: PP
Description: To comprehensively characterize small intestinal immune cells, Applicants generated scRNA-Seq profiles for 58,067 immune cells collected from lamina propria (LP) and Peyer's patch (PP) regions at steady state and after induction of a type 2 inflammatory reaction to ovalbumin (OVA) (Brandt et al., 2003) (FIGS. 1A and 8A). To ensure sufficient representation of rare cells, Applicants combined a normalization strategy—removing by flow sorting either a portion of IgD+ naïve B cells, which are the most abundant cell type in PPs, or all CD19+ and CD3+ T cells (FIG. 8B, Methods)—with profiling of a sufficiently large number of cells number (P>0.99 to recover at least 15 cells from each cluster, Methods) by massively parallel scRNA-seq (Haber et al., 2017) (Methods). Applicants obtained 36,797 and 21,270 high quality cells passing initial filtering (Methods) from PP and LP regions, respectively.
Overall, Applicants annotated 27 cell subsets across the two compartments, spanning T cells, B cells, ILCs, dendritic cells (DCs), myeloid cells and stromal cells, in frequencies ranging from 0.07% to 14%. Briefly, Applicants first partitioned the cells from the PP regions by unsupervised clustering (Methods) into 46 clusters, retained the 97% of cells that were robustly assigned cell identities in each cluster (Methods), assigned the cells from the LP regions to the 46 clusters using a classifier (Methods), and visualized the data with scvis (Ding et al., 2018), a deep generative model-based method (FIGS. 1B and 8C, Methods). Next, Applicants identified genes that were differentially expressed between the cells in each cluster and the remaining cells (Table 1, Methods), as well as between pairs of clusters (Table 2), to elucidate identities of similar cell types/states. Applicants excluded from downstream analysis clusters mostly consisting of contaminants from epithelium, likely doublets, or cells with a small number of Unique Molecular Identifiers (UMIs) (FIGS. 1C and 8D), or lacking distinct markers (Methods). Altogether, Applicants retained 27 clusters spanning 85% of the cells and each associated with distinct marker genes (FIG. 8E, Methods).
To induce allergic reaction to OVA, 6 to 7 weeks old mice were sensitized twice, two weeks apart, with 50 μg of OVA plus 1 mg of aluminum potassium sulfate adjuvant via intraperitoneal injection. Two weeks later, mice were orally administered with 50 mg of OVA on every other day for a total of five times. 1 μg of α-CGRP peptide was administered simultaneously when indicated. Mice were deprived of food for 3-4 hours in cages with wood chip bedding for limiting antigen degradation in the stomach before each intragastric challenge.
Isolation of cells from Peyer's patches (PPs). Peyer's patches (PPs) were carefully dissected from the small intestine under a stereo microscope using a fine scissor, pierced once with a fine forcep. Tissues were digested in freshly made digestion buffer (RPMI-1640 containing 100 μg/ml Liberase™ and 50 μg/ml DNase I at 37° C. on a roto-mixer. After 15 min, tissues were very gently mixed using a 1 ml pipette. The supernatant was collected and added to ice-cold MACS buffer (pH 7.4; PBS plus 2% FCS and 2 mM EDTA). Pre-warmed (37° C.) fresh digestion buffer was added to the remaining tissues. After rotation at 37° C. for 15 min, the mixture was vigorously mixed using a 1 ml pipette for 1 min. Supernatants from the two steps were combined and passed through 70 μm filters and stained for FACS (below).
Isolation of cells from the lamina propria (LP). The small intestines were opened longitudinally and washed in ice-cold PBS. For scRNA-seq, roughly 0.5 cm of fragments from each of the distal, middle and proximal regions without visible PPs were collected. Epithelial cells were dissociated by tissue rotation in pre-warmed (37° C.) PBS containing 10 mM EDTA at 37° C. for 15 min, followed by additional incubation on ice for 15 min. Tissues were then shaken vigorously. […]

B1: OVA (protein, UniProt P01012 2-386, looked up)
Ovalbumin: GSIGAASMEFCFDVFKELKVHHANENIFYCPIAIMSALAMVYLGAKDSTRTQINKVVRFDKLPGFGDSIEAQCGTSVNVHSSLRDILNQITKPNDVYSFSLASRLYAEERYPILPEYLQCVKELYRGGLEPINFQTAADQARELINSWVESQTNGIIRNVLQPSSVDSQTAMVLVNAIVFKGLWEKAFKDEDTQAMPFRVTEQESKPVQMMYQIGLFRVASMASEKMKILELPFASGTMSMLVLLPDEVSGLEQLESIINFEKLTEWTSSNVMEERKIKVYLPRMKMEEKYNLTSVLMAMGITDVFSSSANLSGISSAESLKISQAVHAAHAEINEAGREVVGSAEAGVDAASVSEEFRADHPFLFCIKHIATNAVLFFGRCVSP
For B1, the “Snrnp70 LN (average fold change)” value (cluster ID 6, OVA vs PBS) was 0.220, the “Tmem50a LN (average fold change)” value (cluster ID 6, OVA vs PBS) was 0.153 and the “Tmem59 LN (average fold change)” value (cluster ID 6, OVA vs PBS) was 0.179. The “Tmem86a LN (average fold change)” value (cluster ID 6, OVA vs PBS) was 0.323, the “Tsix LN (average fold change)” value (cluster ID 6, OVA vs PBS) was −0.418 and the “Txndc5 LN (average fold change)” value (cluster ID 6, OVA vs PBS) was 0.226. For the same molecule, the “Ddit4 percentage of expressing cells in OVA-treated group” value (cluster ID 7) was 0.359, the “Dusp2 percentage of expressing cells in OVA-treated group” value (cluster ID 7) was 0.465 and the “Fkbp5 percentage of expressing cells in OVA-treated group” value (cluster ID 7) was 0.167. For the same molecule, the “Gabarapl2 percentage of expressing cells in OVA-treated group” value (cluster ID 7) was 0.643, the “Hsp90ab1 percentage of expressing cells in OVA-treated group” value (cluster ID 7) was 0.834 and the “Il7r percentage of expressing cells in OVA-treated group” value (cluster ID 7) was 0.191. The “Lmo4 percentage of expressing cells in OVA-treated group” value (cluster ID 7) was 0.204, the “Matk percentage of expressing cells in OVA-treated group” value (cluster ID 7) was 0.284 and the “Ptpn22 percentage of expressing cells in OVA-treated group” value (cluster ID 7) was 0.53. The “Svbp percentage of expressing cells in OVA-treated group” value (cluster ID 7) was 0.246, the “Tsc22d3 percentage of expressing cells in OVA-treated group” value (cluster ID 7) was 0.565 and the “Txnip percentage of expressing cells in OVA-treated group” value (cluster ID 7) was 0.415. For the same molecule, the “Zfp36l2 percentage of expressing cells in OVA-treated group” value (cluster ID 7) was 0.757, the “Ddit4 LN (average fold change)” value (cluster ID 7, OVA vs PBS) was 0.463 and the “Dusp2 LN (average fold change)” value (cluster ID 7, OVA vs PBS) was 0.542. The “Fkbp5 LN (average fold change)” value (cluster ID 7, OVA vs PBS) was 0.540, the “Gabarapl2 LN (average fold change)” value (cluster ID 7, OVA vs PBS) was 0.253 and the “Hsp90ab1 LN (average fold change)” value (cluster ID 7, OVA vs PBS) was −0.450. The “Il7r LN (average fold change)” value (cluster ID 7, OVA vs PBS) was 0.526, the “Lmo4 LN (average fold change)” value (cluster ID 7, OVA vs PBS) was 0.711 and the “Matk LN (average fold change)” value (cluster ID 7, OVA vs PBS) was 0.513. For the same molecule, the “Ptpn22 LN (average fold change)” value (cluster ID 7, OVA vs PBS) was 0.340, the “Svbp LN (average fold change)” value (cluster ID 7, OVA vs PBS) was 0.261 and the “Tsc22d3 LN (average fold change)” value (cluster ID 7, OVA vs PBS) was 1.003. For the same molecule, the “Txnip LN (average fold change)” value (cluster ID 7, OVA vs PBS) was 0.551, the “Zfp36l2 LN (average fold change)” value (cluster ID 7, OVA vs PBS) was 1.239 and the “AW112010 percentage of expressing cells in OVA-treated group” value (cluster ID 8) was 0.995. The “AY036118 percentage of expressing cells in OVA-treated group” value (cluster ID 8) was 0.431, the “Actr3 percentage of expressing cells in OVA-treated group” value (cluster ID 8) was 0.771 and the “Alyref percentage of expressing cells in OVA-treated group” value (cluster ID 8) was 0.137. For the same molecule, the “Amd1 percentage of expressing cells in OVA-treated group” value (cluster ID 8) was 0.265, the “Arf4 percentage of expressing cells in OVA-treated group” value (cluster ID 8) was 0.478 and the “Arfrp1 percentage of expressing cells in OVA-treated group” value (cluster ID 8) was 0.21. The “Arl6ip1 percentage of expressing cells in OVA-treated group” value (cluster ID 8) was 0.61, the “Arl6ip5 percentage of expressing cells in OVA-treated group” value (cluster ID 8) was 0.618 and the “Arpc5l percentage of expressing cells in OVA-treated group” value (cluster ID 8) was 0.381. For the same molecule, the “Arrb2 percentage of expressing cells in OVA-treated group” value (cluster ID 8) was 0.32, the “Ash1l percentage of expressing cells in OVA-treated group” value (cluster ID 8) was 0.235 and the “B2m percentage of expressing cells in OVA-treated group” value (cluster ID 8) was 0.999. For the same molecule, the “Bcl2a1b percentage of expressing cells in OVA-treated group” value (cluster ID 8) was 0.151, the “Bcl2l11 percentage of expressing cells in OVA-treated group” value (cluster ID 8) was 0.383 and the “Bcl2 percentage of expressing cells in OVA-treated group” value (cluster ID 8) was 0.839. The “Bhlhe40 percentage of expressing cells in OVA-treated group” value (cluster ID 8) was 0.571, the “Cap1 percentage of expressing cells in OVA-treated group” value (cluster ID 8) was 0.695 and the “Ccr2 percentage of expressing cells in OVA-treated group” value (cluster ID 8) was 0.536. The “Cd47 percentage of expressing cells in OVA-treated group” value (cluster ID 8) was 0.833, the “Cd69 percentage of expressing cells in OVA-treated group” value (cluster ID 8) was 0.306 and the “Cd74 percentage of expressing cells in OVA-treated group” value (cluster ID 8) was 0.448. The “Cdk2ap1 percentage of expressing cells in OVA-treated group” value (cluster ID 8) was 0.132, the “Cdkn1a percentage of expressing cells in OVA-treated group” value (cluster ID 8) was 0.084 and the “Cdv3 percentage of expressing cells in OVA-treated group” value (cluster ID 8) was 0.255. For the same molecule, the “Cks2 percentage of expressing cells in OVA-treated group” value (cluster ID 8) was 0.108, the “Clec2d percentage of expressing cells in OVA-treated group” value (cluster ID 8) was 0.289 and the “Coq10b percentage of expressing cells in OVA-treated group” value (cluster ID 8) was 0.305. For the same molecule, the “Crem percentage of expressing cells in OVA-treated group” value (cluster ID 8) was 0.371, the “Csrp1 percentage of expressing cells in OVA-treated group” value (cluster ID 8) was 0.129 and the “Ctla2a percentage of expressing cells in OVA-treated group” value (cluster ID 8) was 0.74. The “Cxcr4 percentage of expressing cells in OVA-treated group” value (cluster ID 8) was 0.577, the “Ddx21 percentage of expressing cells in OVA-treated group” value (cluster ID 8) was 0.248 and the “Defa24 percentage of expressing cells in OVA-treated group” value (cluster ID 8) was 0.044. The “Dgat1 percentage of expressing cells in OVA-treated group” value (cluster ID 8) was 0.175, the “Dusp1 percentage of expressing cells in OVA-treated group” value (cluster ID 8) was 0.614 and the “Eef2 percentage of expressing cells in OVA-treated group” value (cluster ID 8) was 0.957. For the same molecule, the “Egr1 percentage of expressing cells in OVA-treated group” value (cluster ID 8) was 0.156, the “Eif4a2 percentage of expressing cells in OVA-treated group” value (cluster ID 8) was 0.622 and the “Emb percentage of expressing cells in OVA-treated group” value (cluster ID 8) was 0.506. For the same molecule, the “Fam105a percentage of expressing cells in OVA-treated group” value (cluster ID 8) was 0.376, the “Fasl percentage of expressing cells in OVA-treated group” value (cluster ID 8) was 0.598 and the “Fcer1g percentage of expressing cells in OVA-treated group” value (cluster ID 8) was 0.927.
